Experimental data taken from IntAct's records for PubMed 24270572.

B1: Endoribonuclease ZC3H12A (Homo sapiens), Q5D1E8 (parent)
chain: MSGPCGEKPVLEASPTMSLWEFEDSHSRQGTPRPGQELAAEEASALELQMKVDFFRKLGYSSTEIHSVLQKLGVQADTNTVLGELVKHGTATERERQTSPDPCPQLPLVPRGGGTPKAPNLEPPLPEEEKEGSDLRPVVIDGSNVAMSHGNKEVFSCRGILLAVNWFLERGHTDITVFVPSWRKEQPRPDVPITDQHILRELEKKKILVFTPSRRVGGKRVVCYDDRFIVKLAYESDGIVVSNDTYRDLQGERQEWKRFIEERLLMYSFVNDKFMPPDDPLGRHGPSLDNFLRKKPLTLEHRKQPCPYGRKCTYGIKCRFFHPERPSCPQRSVADELRANALLSPPRAPSKDKNGRRPSPSSQSSSLLTESEQCSLDGKKLGAQASPGSRQEGLTQTYAPSGRSLAPSGGSGSSFGPTDWLPQTLDSLPYVSQDCLDSGIGSLESQMSELWGVRGGGPGEPGPPRAPYTGYSPYGSELPATAAFSAFGRAMGAGHFSVPADYPPAPPAFPPREYWSEPYPLPPPTSVLQEPPVQSPGAGRSPWGRAGSLAKEQASVYTKLCGVFPPHLVEAVMGRFPQLLDPQQLAAEILSYKSQHPSE

Variants of: B1
Details: with ubp10_human USP10, Q14694
ubp10_human USP10, Q14694, sequence (Q14694 whole entry): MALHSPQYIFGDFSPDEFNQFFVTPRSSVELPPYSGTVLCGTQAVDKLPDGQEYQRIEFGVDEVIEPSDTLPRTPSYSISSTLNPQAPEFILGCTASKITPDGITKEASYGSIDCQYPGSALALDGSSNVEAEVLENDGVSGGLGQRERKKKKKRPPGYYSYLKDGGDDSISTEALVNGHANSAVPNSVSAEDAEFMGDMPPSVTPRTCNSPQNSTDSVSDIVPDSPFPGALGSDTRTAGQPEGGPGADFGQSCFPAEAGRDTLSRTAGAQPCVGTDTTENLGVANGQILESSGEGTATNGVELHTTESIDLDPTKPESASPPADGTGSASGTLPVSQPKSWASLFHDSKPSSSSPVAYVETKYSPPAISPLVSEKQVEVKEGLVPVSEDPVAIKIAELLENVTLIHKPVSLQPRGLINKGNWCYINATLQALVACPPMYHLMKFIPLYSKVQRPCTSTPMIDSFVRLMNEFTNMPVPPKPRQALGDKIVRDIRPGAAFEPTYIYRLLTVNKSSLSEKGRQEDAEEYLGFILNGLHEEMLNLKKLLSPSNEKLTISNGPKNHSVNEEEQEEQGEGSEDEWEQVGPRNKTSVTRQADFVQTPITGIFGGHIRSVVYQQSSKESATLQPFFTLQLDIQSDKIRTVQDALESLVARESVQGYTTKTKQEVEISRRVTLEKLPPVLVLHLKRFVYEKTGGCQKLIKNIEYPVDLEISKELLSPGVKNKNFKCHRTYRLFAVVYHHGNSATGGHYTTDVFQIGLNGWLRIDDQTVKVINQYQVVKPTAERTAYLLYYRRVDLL

| effect of a mutation on the interaction | Variant |
| --- | --- |
| disrupting interaction | MSGPCGEKPVLEASPTMSLWEFEDSHSRQGTPRPGQELAAEEASALELQMKVDFFRKLGYSSTEIHSVLQKLGVQADTNTVLGELVKHGTATERERQTSPDPCPQLPLVPRGGGTPKAPNLEPPLPEEEKEGSDLRPVVINGSNVAMSHGNKEVFSCRGILLAVNWFLERGHTDITVFVPSWRKEQPRPDVPITDQHILRELEKKKILVFTPSRRVGGKRVVCYDDRFIVKLAYESDGIVVSNDTYRDLQGERQEWKRFIEERLLMYSFVNDKFMPPDDPLGRHGPSLDNFLRKKPLTLEHRKQPCPYGRKCTYGIKCRFFHPERPSCPQRSVADELRANALLSPPRAPSKDKNGRRPSPSSQSSSLLTESEQCSLDGKKLGAQASPGSRQEGLTQTYAPSGRSLAPSGGSGSSFGPTDWLPQTLDSLPYVSQDCLDSGIGSLESQMSELWGVRGGGPGEPGPPRAPYTGYSPYGSELPATAAFSAFGRAMGAGHFSVPADYPPAPPAFPPREYWSEPYPLPPPTSVLQEPPVQSPGAGRSPWGRAGSLAKEQASVYTKLCGVFPPHLVEAVMGRFPQLLDPQQLAAEILSYKSQHPSE [D141N] |

Variants of: B1
Details: with ubp10_human USP10, Q14694
Remark: another data set of the same source

| effect of a mutation on the interaction | Variant |
| --- | --- |
| disrupting interaction | MSGPCGEKPVLEASPTMSLWEFEDSHSRQGTPRPGQELAAEEASALELQMKVDFFRKLGYSSTEIHSVLQKLGVQADTNTVLGELVKHGTATERERQTSPDPCPQLPLVPRGGGTPKAPNLEPPLPEEEKEGSDLRPVVIDGSNVAMSHGNKEVFSCRGILLAVNWFLERGHTDITVFVPSWRKEQPRPDVPITDQHILRELEKKKILVFTPSRRVGGKRVVCYDDRFIVKLAYESDGIVVSNDTYRDLQGERQEWKRFIEERLLMYSFVNDKFMPPDDPLGRHGPSLDNFLRKKPLTLEHRKQPRPYGRKCTYGIKCRFFHPERPSCPQRSVADELRANALLSPPRAPSKDKNGRRPSPSSQSSSLLTESEQCSLDGKKLGAQASPGSRQEGLTQTYAPSGRSLAPSGGSGSSFGPTDWLPQTLDSLPYVSQDCLDSGIGSLESQMSELWGVRGGGPGEPGPPRAPYTGYSPYGSELPATAAFSAFGRAMGAGHFSVPADYPPAPPAFPPREYWSEPYPLPPPTSVLQEPPVQSPGAGRSPWGRAGSLAKEQASVYTKLCGVFPPHLVEAVMGRFPQLLDPQQLAAEILSYKSQHPSE [C306R] |
